This test deals with T1, CENP-A-GFP-LacI (in S2 cells), Q9V6Q2.
T1 chain: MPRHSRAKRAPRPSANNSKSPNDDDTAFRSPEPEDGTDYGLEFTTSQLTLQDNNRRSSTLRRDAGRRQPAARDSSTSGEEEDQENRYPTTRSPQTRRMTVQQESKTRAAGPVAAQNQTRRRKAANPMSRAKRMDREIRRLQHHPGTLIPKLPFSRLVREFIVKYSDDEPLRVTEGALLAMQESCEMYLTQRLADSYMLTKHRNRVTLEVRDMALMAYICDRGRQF
In words: LacO/LacI tethering assay in Drosophila S2 cells (fluorescence intensity of CAL1-V5 at the tethering site). Particulars: chain shown with the change;; parent: est. 1800; read off a plot.

Numbering of substitutions follows the chain as printed. Numbers in names are those of the source.

B1: CAL1WT-V5 (in S2 cells), Q9VEN2 W22R; F29R (protein)
chain: MANAVVDEETLEAMVYERSKARSSKMADRASLEDGMEIDVAEFDNLFHGEDEDPDLDDVAKEAVEDNVPDEAKLEMGHINATSVTELTLILCANEDNEAKAEIEEILNQTVPVVEEHKRKWREAGLDRILDTFDEKQIEHHVGRWMRRHNSVYLEASPPKYLPPHHNSISDESDESMHSIDTARYIQQSRRRNAHMTNKNMTTIKMYRKHSHKRDELRAKYAYGDEQEHRHHMQAVLLRRRERERQLAYLASTPMQCVYSSGHHMRRKNLRKRRINSWMFDSASSSEEDTSFGGCDCHSCRRHYALSRSVYQSCPYGRGQREYHHRQMASRTMHTMRRQHTFDMEMDLRPRLPENECSCCNSDRLCSNVIHIANSSTEEWVVENRSNHLTQETQEKTRKQKHQPMDARKVSHQPVCSKGHEQKPLSSKATSVSKLVLSKEKYMQMFDSESSDEDNALAKKGLLCCSDKKKGMTFPTPNAAGKITHPTSSAKKAIRKEARPNGLAQIQEEGPTATNSPIESTYLPVAHMKSVSIDGSSGTSATFESPAKKAPKRGIRETSPLNGNELQQLISTIPIADEKASSLMEKVDNCIGRESFDDRNKDFMHMENSSTKTAVEKSTKQKRVSGKKSEIPKSIITNNEILEKNSTETLSEKQVAAKAKKQSVRKTGATGKPSTSRLKKSEKTKTTSSVTSTSKLEQVREEESDVSSEVLAKPKPQCSTTASILKQGGDGASNSEDDLQIALAMSKATYKEEQQKRKKTKREPSNKQPQSPAEKSMTVFNNQSVACNSTALANDTACYRVLPKRRGVKRAAAVSTTEEKTATNSSSSPTSSLEEMGSPTGGDPDCTVVTSTTGCEPPASERQEIPATIKITKRGILLHSPSAPEGASFTLTEQGLGKIIGERWARKYLKYHIGSRSFDSRHSVYYQPTPQLAAALSAPQDAQNIGNISGSSASDDDIFEQINRYGTVYSILENNSGDK
Turning to B1, the response was found to be 120 a.u.

B2: CAL1WT-V5 (in S2 cells), Q9VEN2 F43R (protein)
chain: B1 chain with R22W, R29F, F43R
As to B2, the response amounted to 590 a.u.

The record behind these values is article PMC7110144.
